Here are results for three molecules from PMC6279937, “Biochemical Characterization of Aspergillus fumigatus AroH, a Putative Aromatic Amino Acid Aminotransferase” (Frontiers in Molecular Biosciences, 2018).

Data set [1] deals with T1, AroH (Aspergillus fumigatus, UniProt Q4X0F7).
T1 construct: gene AFUA_2G13630; entire AroH cDNA with C-terminal 6xHis tag (kept) in pET22b, synthesized by GenScript, expressed in E. coli BL21(DE3); subunit mass 59480 Da; homodimer with 1 PLP per subunit
T1 sequence (Q4X0F7 1-526): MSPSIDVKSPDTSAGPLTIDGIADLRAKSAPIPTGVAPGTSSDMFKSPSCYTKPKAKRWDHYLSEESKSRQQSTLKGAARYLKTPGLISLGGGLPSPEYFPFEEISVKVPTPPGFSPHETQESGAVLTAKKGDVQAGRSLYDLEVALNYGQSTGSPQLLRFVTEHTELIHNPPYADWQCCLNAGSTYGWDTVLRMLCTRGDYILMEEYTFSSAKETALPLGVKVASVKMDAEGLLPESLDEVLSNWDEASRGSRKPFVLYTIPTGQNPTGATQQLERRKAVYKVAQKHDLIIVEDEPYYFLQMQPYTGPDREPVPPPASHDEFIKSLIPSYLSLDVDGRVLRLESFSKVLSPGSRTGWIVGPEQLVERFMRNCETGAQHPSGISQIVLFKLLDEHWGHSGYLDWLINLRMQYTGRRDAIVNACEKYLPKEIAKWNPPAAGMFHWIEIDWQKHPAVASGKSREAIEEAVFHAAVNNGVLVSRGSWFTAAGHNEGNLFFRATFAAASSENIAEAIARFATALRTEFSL
Nature of the data set: intrinsic fluorescence quenching of apoenzyme, tight-binding fit. The settings on record: read-out: KD(PLP).

For data set [2], the target named is Aspergillus fumigatus AroH, recombinant, with a C-terminal 6xHis tag (Aspergillus fumigatus). Nature of the data set: SEC; 5 uM holoAroH on Superdex 200 10/300 GL, 0.1 M potassium phosphate pH 7.4, 0.5 ml/min; elution volume compared with molecular weight standards.
Substrate in data set [3]: O=C(O)CCC(=O)C(=O)O
The experiment in a line: purified protein. In kind it is biochemical, Aspergillus fumigatus. The settings on record: co-substrate 20 mM L-tryptophan, 100 μM PLP, 66 mM potassium phosphate pH 8.2, 25°C, pH 8.2.

Substrate in data set [4]: N[C@@H](Cc1ccc(O)cc1)C(=O)O
The experiment in a line: purified protein. In kind it is biochemical, Aspergillus fumigatus. The settings on record: co-substrate 1 mM α-ketoglutarate, 100 μM PLP, 66 mM potassium phosphate pH 8.2, 25°C, pH 8.2.

Substrate in data set [5]: N[C@@H](CCC(=O)O)C(=O)O
Nature of the data set: purified protein. The settings on record: co-substrate α-ketoadipate, 100 μM PLP, 66 mM potassium phosphate pH 7.4. In kind it is biochemical, Aspergillus fumigatus.

Substrate in data set [6]: O=C(O)CCCC(=O)C(=O)O
The experiment in a line: purified protein. In kind it is biochemical, Aspergillus fumigatus. The settings on record: co-substrate L-glutamate, 100 μM PLP, 66 mM potassium phosphate pH 7.4.

Substrate in data set [7]: Nc1ccccc1C(=O)C[C@H](N)C(=O)O
Nature of the data set: purified protein. In kind it is biochemical, Aspergillus fumigatus. The settings on record: co-substrate α-ketoglutarate, 100 μM PLP, 66 mM potassium phosphate pH 7.4.

Substrate in data set [8]: N[C@@H](CCCC(=O)O)C(=O)O
Nature of the data set: purified protein. In kind it is biochemical, Aspergillus fumigatus. As to conditions: co-substrate α-ketoglutarate, 100 μM PLP, 66 mM potassium phosphate pH 7.4.

Substrate in data set [9]: N[C@@H](Cc1ccccc1)C(=O)O
The experiment in a line: purified protein. In kind it is biochemical, Aspergillus fumigatus. As to conditions: co-substrate 1 mM α-ketoglutarate, 100 μM PLP, 66 mM potassium phosphate pH 8.2 (Figure 5 legend says pH 7.4), 25°C.

Substrate in data set [10]: N[C@@H](Cc1c[nH]c2ccccc12)C(=O)O
Nature of the data set: purified protein. In kind it is biochemical, Aspergillus fumigatus. The settings on record: co-substrate 1 mM α-ketoglutarate, 100 μM PLP, 66 mM potassium phosphate pH 8.2, 25°C, pH 8.2.

As for `Cc1ncc(COP(=O)(O)O)c(C=O)c1O` [PLP], the Kd in data set [1] turned out to be 100 ± 20 nM.
On to “Aspergillus fumigatus AroH, recombinant, with a C-terminal 6xHis tag (enzyme)”, for which, in data set [2], the stoichiometry N is 2.

B1: AroH (Aspergillus fumigatus Af293) (protein)
chain: T1 sequence (Q4X0F7 1-526)
notes: entire AroH cDNA with C-terminal 6xHis tag (kept) in pET22b, synthesized by GenScript, expressed in E. coli BL21(DE3); subunit mass 59480 Da; homodimer with 1 PLP per subunit
Turning to B1, the Km in data set [3] turned out to be 180 ± 20 µM; in [4], 500 ± 100 µM; in [5], 10000 ± 1000 µM; in [6], 140 ± 30 µM; in [7], 9000 ± 2000 µM; in data set [8] it was 3300 ± 400 µM. In addition, the Km amounted to 1400 ± 200 µM in data set [9] and 2100 ± 300 µM in data set [10]. Moreover, the kcat in data set [3] is 2.5 ± 0.1 s⁻¹; in data set [4], 4 ± 0.3 s⁻¹; in data set [5], 10.3 ± 0.3 s⁻¹; in data set [6] it was 12.5 ± 1 s⁻¹; in [7], 4.1 ± 0.4 s⁻¹; in [8], 13.2 ± 0.5 s⁻¹. Also, the kcat in [9] came out at 7.4 ± 0.2 s⁻¹; in data set [10], 3 ± 0.1 s⁻¹. Besides, the kcat/Km in data set [3] was 14000 ± 2000 M⁻¹ s⁻¹; in [4] it was 8000 ± 2000 M⁻¹ s⁻¹; in data set [5], 960 ± 80 M⁻¹ s⁻¹; in [6], 90000 ± 20000 M⁻¹ s⁻¹; in data set [7] it was 400 ± 100 M⁻¹ s⁻¹; in data set [8], 4000 ± 400 M⁻¹ s⁻¹. Further, the figures for the kcat/Km in data set [9] and in [10] were 5200 ± 600 M⁻¹ s⁻¹ and 1400 ± 200 M⁻¹ s⁻¹, respectively.
